Target: T1, p53-ZF43 bait (UniProt P04637)
T1 construct: also called p53 bait; source: BHK-21, transfected, in cells
Experiment: two-hybrid
Conditions: partners not purified

T1 sequence (P04637 whole entry): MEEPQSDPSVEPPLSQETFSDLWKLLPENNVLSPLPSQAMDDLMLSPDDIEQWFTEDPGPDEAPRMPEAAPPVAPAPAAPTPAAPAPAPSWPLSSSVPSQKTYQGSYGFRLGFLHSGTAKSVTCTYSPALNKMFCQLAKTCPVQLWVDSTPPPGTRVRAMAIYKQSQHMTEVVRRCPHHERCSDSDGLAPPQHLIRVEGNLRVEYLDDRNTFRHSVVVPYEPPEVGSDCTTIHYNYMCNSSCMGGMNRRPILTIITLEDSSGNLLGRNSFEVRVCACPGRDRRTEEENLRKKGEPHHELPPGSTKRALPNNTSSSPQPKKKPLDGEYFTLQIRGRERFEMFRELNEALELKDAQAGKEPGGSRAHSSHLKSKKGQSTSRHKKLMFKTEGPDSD

B1: Nb139-VP64 (parental, NLS-containing fusion) (VHH)
VHH: QVQLQESGGGLVQAGGSLRLSCAASERTFSTYAMGWFRQAPGREREFLAQINWSGTTTYYAESVKDRTTISRDNAKNTVYLEMNNLNADDTGIYFCAAHPQRGWGSTLGWTYWGQGTQVTVSS
notes: also called Nb139[WT]; source: BHK-21, transfected, in cells
**Q.** Does B1 bind?
**A.** binds

— publication PMC12059018 (Nature Communications, 2025)
